In one assay the target is T1, Sir3 (464–978) (S. cerevisiae, UniProt P06701 464-978).
T1 construct: Purification according to Chang et al. (2003) and King et al. (2006); also called wild-type Sir3 fragment; source: E. coli BL21 Rosetta, purified (Ni-IDA, ion exchange, Superdex 200)
In words: SEC; proteins mixed in equimolar ratio, 40 min on ice; Superdex 200 Increase 3.2/300, isocratic flow, 4°; fractions on SDS-PAGE, Coomassie. Particulars: both partners purified. (Size exclusion chromatography separates by hydrodynamic size, large species first.)

A further assay concerns the target T2, Sir3-1067(464–978) (S. cerevisiae, UniProt P06701 464-978, K657A | K658A).
T2 construct: also called mutant Sir3 fragment; source: E. coli BL21 Rosetta, purified (Ni-IDA, ion exchange, Superdex 200)
Described as above. Particulars: both partners purified.

T2 sequence (P06701 464-978 K657A/K658A): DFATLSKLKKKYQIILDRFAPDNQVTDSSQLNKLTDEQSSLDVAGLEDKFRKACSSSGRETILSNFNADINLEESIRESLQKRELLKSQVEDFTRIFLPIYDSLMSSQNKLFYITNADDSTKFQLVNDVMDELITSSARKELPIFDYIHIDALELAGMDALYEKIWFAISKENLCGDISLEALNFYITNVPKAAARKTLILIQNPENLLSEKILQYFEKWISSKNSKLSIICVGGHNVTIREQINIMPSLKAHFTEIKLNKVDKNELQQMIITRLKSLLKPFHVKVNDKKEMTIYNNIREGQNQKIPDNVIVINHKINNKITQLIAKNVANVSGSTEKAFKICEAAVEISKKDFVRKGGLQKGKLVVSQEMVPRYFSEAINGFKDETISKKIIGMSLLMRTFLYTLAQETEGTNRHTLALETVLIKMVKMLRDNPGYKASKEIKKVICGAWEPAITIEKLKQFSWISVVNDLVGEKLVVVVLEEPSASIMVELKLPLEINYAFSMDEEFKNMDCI
T1 sequence (P06701 464-978): as the sequence (P06701 464-978 K657A/K658A) above, with A194K, A195K counted along it

B1: Sir4 (1217–1358) (domain or fragment, S. cerevisiae, UniProt P11978 1217-1358, looked up)
chain: SNTTEILTSVDVLGTHSQTGTQQSNMYTSTQKTELEIDNKDSVTECSKDMKEDGLSFVDIVLSKAASALDEKEKQLAVANEIIRSLSDEVMRNEIRITSLQGDLTFTKKCLENARSQISEKDAKINKLMEKDFQVNKEIKPY
notes: source: E. coli BL21 Rosetta, purified (Ni-NTA, Superdex 75)
Take B1: in the assay with Sir3 (464–978), the binding result was “binds”.

B2: Sir4-ETK (1217–1358) (domain or fragment, S. cerevisiae, UniProt P11978 1217-1358, looked up)
chain: SNTTEILTSVDVLGTHSQTGTQQSNMYTSTQKTELEIDNKDSVTECSKDMKEDGLSFVDIVLSKAASALDEKEKQLAVANEIIRSLSDEVMRNVIRISSLQGDLTFTKRCLENARSQISEKDAKINKLMEKDFQVNKEIKPY
notes: also called Sir4-E1310V, T1314S, K1325R coiled-coil fragment; source: E. coli BL21 Rosetta, purified (Ni-NTA, Superdex 75)
For B2, in the assay with Sir3-1067(464–978), the binding result is given as “binds”.
